Measurements: patent publication US20120066777A1 (SHIONOGI, published 2012)
Blank lines part the entries; values can stand above or below the binder they belong to.

Tests used:
[1] = molecular target: T1, human recombinant CCDC3 protein (human, UniProt Q9BQI4 22-270); experiment: displacement ELISA: captured antibody, unlabelled human recombinant CCDC3 (0.01 to 100 nM) against biotin-human recombinant CCDC3
T1 construct: Secreted from Freestyle293 cells, purified from culture supernatant, 3xFlag tag removed with thrombin (31 kDa); the C-terminus at 270 follows from the C-terminus peptide 259-270; Also used biotin-labelled (PEO-maleimide biotin) as tracer; also called human CCDC3 recombinant protein; human CCDC3 protein
T1 sequence: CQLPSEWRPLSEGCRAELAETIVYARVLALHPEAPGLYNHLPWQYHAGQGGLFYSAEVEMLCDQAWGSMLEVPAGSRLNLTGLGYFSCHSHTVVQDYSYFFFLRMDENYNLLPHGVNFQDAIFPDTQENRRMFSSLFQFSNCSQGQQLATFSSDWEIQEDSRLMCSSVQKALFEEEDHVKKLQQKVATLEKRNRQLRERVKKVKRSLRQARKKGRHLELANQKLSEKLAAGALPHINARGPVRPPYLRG
Protocol: A buffer A containing 10 μl of CCDC3 antibody was added to the anti-mouse IgG antibody-anchored plate, and 10 μl of 0.01 to 100 nM human recombinant CCDC3 was added. The mixture was allowed to react at 4° C. for 16 hours after adding buffer A (10 μl) that contained 1 ng of biotin-human recombinant CCDC3 protein and 4 ng of Streptavidin-HRP (PIERCE). Each well was washed three times with washing liquid (90 μl), and 25 μl of TMB+Substrate-Chromogen (DAKO) was added to develop color at room temperature for 30 min. The reaction was stopped by adding 25 μl of 0.5 M sulfuric acid, and absorbance at 450 nm was measured.

[2] = molecular target: T2, human CCDC3 protein C-terminus partial peptide (259-270) (human, PEO-maleimide activated biotin on the added N-terminal Cys); experiment: raised against the peptide-KLH; hybridoma screened by ELISA on the biotin-labelled peptide
T2 construct: the immunogen was the 12 mer conjugated to KLH; also called biotin-human CCDC3 protein C-terminus region peptide
Protocol: Specific antibody producing cells were screened 10 days after the cells were fused. Screening was performed by ELISA, as follows. A Tris buffer (50 mM Tris-HCl, pH 7.5, 35 μl) containing anti-mouse IgG antibodies (0.35 μg; Shibayagi Co., Ltd.) was added to each well of a 384-well microtiter plate (Nunc), and the antibodies were immobilized at 4° C. for 16 hours. The wells were washed once with 90 μl of washing liquid (physiological saline containing 0.01% Tween 20), and left unattended at room temperature for 2 hours for blocking after adding […] of Block Ace (Dainippon Pharma) (anti-mouse IgG antibody-anchored plate). After washing each well once with washing liquid (90 μl), a hybridoma culture supernatant (15 μl) and buffer A (10 μl; 50 mM Tris buffer containing 0.5% bovine serum albumin, 0.01% Tween 80, 0.05% Proclin 150, and 0.5 M NaCl; pH 7.4) were added. When the immunogen was the peptide-KLH conjugate, buffer A (10 μl) containing 0.02 ng of the biotin-human CCDC3 protein C-terminus region peptide and 2 ng of Streptavidin-HRP (PIERCE) was added. When the immunogen was the human recombinant CCDC3 protein or its KLH-conjugate, buffer A (10 μl) containing 1 ng of the biotin-human recombinant CCDC3 protein and 4 ng of Streptavidin-HRP (PIERCE) was added. […] The reaction was stopped by adding 25 μl of 0.5 M sulfuric acid, and absorbance at 450 nm was measured.

IC50 [1]: 0.1 nM
B1: 11E10 antibody (antibody, IgG2b, V domains shown)
VH: QVQLQQSGPELVKPGASVKISCKASGYSFRSYYIHWMKQSPGQGLEWIAWIYPGGGKIYYNDNEKFKDKVTLTADTSSSTAYMQLTGLTSEDSAVYFCARWGGYYVGSILDYWGQGTSVTVSS
VL: DGDIVMTQSQKFLSTSVGDRVSVTCKASQNVDNNVAWYQQRPGQSPKPLIYLTSSRYSGVPDRFTGSGSGTDFTLTITNVQSEDLAEYFCQQYKTYPLTFSVGTKLELKRA
notes: Mouse hybridoma monoclonal, isotype IgG2b; From a mouse immunized with antigen 2 (human recombinant CCDC3-KLH conjugate); also called human anti-CCDC3 antibody 11E10

IC50 [1]: 9.4 nM | binding result [2]: binds
B2: 3H6 antibody (antibody, IgG2b, V domains shown)
VH: QIQLVQSGPELKKPGETVKISCKASGYTFTNYGMIWVKQAPGKDLKWMAWINTYSGEPTCADDFKGRFAFSLETSASTAYLQINNLKNEDMATYFCARDDGYYGYFDYWGQGTTLTVSS
VL: DVVMTQTPLSLPVSLGDQASISCRSSQTLVHSDGNTYLHWYLQKPGQSPKLLIYKISNRFSGVPDRFSGSGSGTDFTLKISRVEAEDLGVYFCSQSTHVPPTFGGGTKLEIKR
notes: Mouse hybridoma monoclonal, isotype IgG2b; From a mouse immunized with antigen 1 (human CCDC3 C-terminus peptide 259-270 conjugated to KLH); Used biotinylated as capture antibody in the sandwich ELISA; also called human anti-CCDC3 antibody 3H6

IC50 [1]: 3.2 nM
B3: 6G12 antibody (antibody, IgG1, V domains shown)
VH: QVQLQQPGAELVRPGASVKMSCKASGYTFSSYLMDWVKQRPGQGFECIGNINPNTGSTIYNERFKGKAKLTVDKSSSTAYMQLISLTSEDSAVYYCAADGYYAPFTYWGQGTLVTVSA
VL: DIVMTQAAPSVPVTPGESVSISCRSSKSLLHNNGNTYLYWFLQRPGQSPQLLIYRMSNLASGVPDRFSGSGSGTAFTLRISRVEAEDVGVYYCMQHLEYPFTFGAGTKLELKR
notes: Mouse hybridoma monoclonal, isotype IgG1; From a mouse immunized with antigen 3 (human recombinant CCDC3); Used biotinylated as capture antibody in the sandwich ELISA; also called human anti-CCDC3 antibody 6G12
